Article PMC8692893
Several values for one entry are separate records, joined by “and”; a condition that tells them apart may be missing. Identical values can stand only once.

Columns and labels:
[1] = biological target: IgM in bamboo shark plasma (Chiloscyllium plagiosum (endogenous in plasma)); assay: non-reducing SDS-PAGE and SDS-agarose gel electrophoresis with Western blot; 1 µl plasma heated at 65°C for 10 min in SDS-loading buffer without reducing agents; 5% SDS-PAGE; 1.5% agarose gel with 0.1% SDS in the running buffer for plasma proteins larger than 300 kDa; blots probed with anti-IgNAR pAb or anti-IgM [Z69]; multimers counted in Ig monomers by molecular weight
[2] = biological target: IgW in bamboo shark plasma (Chiloscyllium plagiosum (endogenous in plasma)); assay: non-reducing gel electrophoresis with Western blot (data not shown); IgW multimers in plasma, data not shown; anti-IgW [V43]
[3] = biological target: immunoglobulin new antigen receptor (IgNAR), secretory, in bamboo shark plasma (Chiloscyllium plagiosum (endogenous in plasma)); assay: non-reducing SDS-PAGE and SDS-agarose gel electrophoresis with Western blot; 1 µl plasma heated at 65°C for 10 min in SDS-loading buffer without reducing agents; 5% SDS-PAGE; 1.5% agarose gel with 0.1% SDS in the running buffer for plasma proteins larger than 300 kDa; blots probed with anti-IgNAR pAb or anti-IgM [Z69]; multimers counted in Ig monomers by molecular weight

## IgM in bamboo shark plasma (natural protein)
[1]
  stoichiometry N: 5

## IgW in bamboo shark plasma (natural protein)
[2]
  stoichiometry N: 5 and 2

## immunoglobulin new antigen receptor (IgNAR), secretory, in bamboo shark plasma (natural protein)
[3]
  stoichiometry N: 3 and 4 and 5
